{"source": "patent US8252583B2", "about": "“Method for inducing differentiation into cardiomyocytes using G-CSF” (Keiichi Fukuda, priority 2007, dated 2012)", "molecules": {"B1": {"name": "mouse G-CSF: G-CSF of mouse origin used on CMES cells (protein, UniProt P09920 31-208, looked up)", "Granulocyte …": "VPLVTVSALPPSLPLPRSFLLKSLEQVRKIQASGSVLLEQLCATYKLCHPEELVLLGHSLGIPKASLSGCSSQALQQTQCLSQLHSGLCLYQGLLQALSGISPALAPTLDLLQLDVANFATTIWQQMENLGVAPTVQPTQSAMPAFTSAFQRRAGGVLAISYLQGFLETARLALHHLA"}, "B2": {"name": "G-CSF: hematopoietic factor, differentiation-inducing factor for granulocyte lineage hematopoietic stem cells; agonist for G-CSF receptor (protein, listed as Homo sapiens)", "chain": "TPLGPASSLPQSFLLKCLEQVRKIQGDGAALQEKLCATYKLCHPEELVLLGHSLGIPWAPLSSCPSQALQLAGCLSQLHSGLFLYQGLLQALEGISPELGPTLDTLQLDVADFATTIWQQMEELGMAPALQPTQGAMPAFASAFQRRAGGVLVASHLQSFLEVSYRVLRHLAQP"}, "B3": {"name": "human G-CSF: G-CSF of human origin used on CMES cells (protein, UniProt P09919 31-207, looked up)", "Granulocyte …": "TPLGPASSLPQSFLLKCLEQVRKIQGDGAALQEKLVSECATYKLCHPEELVLLGHSLGIPWAPLSSCPSQALQLAGCLSQLHSGLFLYQGLLQALEGISPELGPTLDTLQLDVADFATTIWQQMEELGMAPALQPTQGAMPAFASAFQRRAGGVLVASHLQSFLEVSYRVLRHLAQP"}}, "key": {"G-CSFR expression": {"system": "G-CSFR expression", "assay": "G-CSFR expression in EBs derived from ES cells treated with Noggin (RT-PCR, immunostaining)", "type": "cell-based, mouse", "method": "(§1) In the experiments described below, EB3 cells (kindly provided by Dr. Hitoshi Niwa of Riken, Japan) and R1 cells (kindly provided by Dr. Andrew Nagy of Mount Sinai Hospital, Canada) were used as ES cells. These ES cells were maintained on gelatin-coated plates in Glasgow Minimum Essential Medium (GMEM; Sigma) containing 10% fetal bovine serum, 2 mM L-glutamine, 0.1 mM nonessential amino acid solution, 1 mM sodium pyruvate, 0.1 mM 2-mercaptoethanol and 2000 U/mL leukemia inhibitory factor (LIF) (ESGRO; Chemicon).\nSuspension culture was performed as follows to form EBs from ES cells. ES cells were cultured for 3 days on gelatin-coated plates in α-MEM medium containing 10% fetal bovine serum, 2 mM L-glutamine, 0.1 mM nonessential amino acid solution, 1 mM sodium pyruvate, 0.1 mM 2-mercaptoethanol, 2000 U/mL leukemia inhibitory factor and 0.15 μg/ml Noggin (Noggin-Fc, R&D). The ES cells were then dispersed into single cells by treatment with a trypsin solution, and further cultured on uncoated Petri dishes using a three-dimensional culture system in the same differentiation medium as used above (except being free from LIF) to form spheroids, from which EBs (embryoid bodies) were induced. […]"}, "cardiomyocyte markers [1]": {"system": "cardiomyocyte markers", "assay": "Expression of cardiomyocyte markers in ES cell-derived EBs (RT-PCR, immunostaining)", "type": "cell-based, mouse", "description": "Next, EBs at day 9 were used and analyzed for the expression of various cardiomyocyte-specific genes by RT-PCR and immunostaining. The cardiomyocyte markers used in RT-PCR were Tbx-5, MEF-2c (muscle enhancement factor-2c), Nkx2.5, GATA-4, βMHC (β myosin heavy chain), MLC-2v (myosin light chain-2v), αMHC (α-myosin heavy chain), BNP (brain natriuretic peptide), ANP (atrial natriuretic peptide) and GAPDH (glyceraldehyde-3-phosphate dehydrogenase). The cardiomyocyte markers used in immunostaining were α-actinin, actin, troponin 1-C, MF20 and ANP. […] Further, to study the optimum concentration of G-CSF, G-CSF was added at various concentrations (0.25, 0.75, 2.5, 7.5, 25, 75 ng/ml) to EBs at day 6, followed by RT-PCR to analyze the expression of each cardiomyocyte marker. It should be noted that EBs prepared at two cell densities, H ([…]) and L (5×10^4 cell/ml), were used in this test. […] To confirm a possibility that the promoting effect of G-CSF treatment to induce myocardial differentiation from ES cells would be mediated by the endogenous G-CSF signaling pathway, anti-G-CSF antibody (R&D systems) was added to medium simultaneously with G-CSF treatment and studied for its effect. EBs at day 6 were treated with G-CSF (7.5 ng/mL) in the presence of anti-G-CSF antibody at various concentrations (0, 1, 3, 9 ng/ml) to study the effect of anti-G-CSF antibody using various cardiomyocyte markers. […] To test the proliferation-promoting effect of G-CSF on ES cell-derived cardiomyocytes, EBs at day 6 were used to prepare G-CSF (7.5 ng/mL)-treated and untreated groups and a G-CSF+nocodazole (0.2 μg/mL)-treated group. […] These three groups were tested for various cardiomyocyte markers by RT-PCR."}, "human ES cells": {"system": "human ES cells", "conditions": "human ES cells treated with 5-azacytidine; rises from 15%; cited from earlier work"}, "cardiomyocyte markers [2]": {"system": "cardiomyocyte markers", "assay": "Cardiomyocyte marker expression in CMES cells (RT-PCR, immunostaining)", "type": "cell-based, common marmoset", "conditions": "for expression of cardiomyocyte markers (RT-PCR, FIG. 21b): CMES cells", "method": "(§2) To test the effect of G-CSF on primate cardiogenesis, common marmoset ES (CMES) cells (#20) (Sasaki et al., Stem Cells 23, 1304-1313 (2005)) were used. CMES cells were maintained on a layer of mitotically inactivated mouse embryonic fibroblasts (MEFs) in Knockout DMEM (GIBCO) medium supplemented with 20% Knockout Serum Replacement (KSR; GIBCO), 1 mM L-glutamine (GIBCO), 0.1 mM MEM nonessential amino acids (GIBCO), 0.1 mM β-mercaptoethanol (2-ME; Sigma), 10 ng/ml fibroblast growth factor (bFGF; Invitrogen) and 10 ng/ml human leukemia inhibitory factor (hLIF; Alomone labs). CMES cells were passaged every 5 days to maintain their undifferentiated state.\n(§3) Undifferentiated CMES cells were removed from the MEF feeder layer, dissociated into small colonies with a dissociation solution for human and monkey ES cells (ReproCELL. JAPAN), and then cultured to form EBs in suspension culture using HydroCell culture plates (CellSeed, JAPAN) in medium free from bFGF and hLIF."}, "[3]": {"system": "common marmoset ES (CMES) cells", "assay": "Spontaneous beating of common marmoset ES cell-derived EBs", "type": "cell-based", "conditions": "G-CSF 2.5 ng/mL added at 4, 6 or 9 days after EB formation", "method": "as §2, §3\nAt 4, 6 and 9 days after EB formation, G-CSF (2.5 ng/mL) was added to observe spontaneous beating. The best result was obtained upon addition at 6 days after EB formation, and the difference between G-CSF-treated and untreated groups became evident at 14 days after EB formation."}, "[4]": {"system": "ES cell-derived cardiomyocytes", "assay": "BrdU incorporation in ES cell-derived EBs (double immunostaining anti-BrdU / anti-mef2c)", "type": "cell-based, mouse", "conditions": "EBs at day 6, G-CSF 2.5 ng/mL, BrdU for 18 hours; vs untreated", "method": "In addition, EBs at day 6 were used to prepare G-CSF (2.5 ng/mL)-treated and untreated groups, which were then incubated with BrdU for 18 hours."}, "[5]": {"system": "fetal myocardial proliferation", "assay": "In vivo effect of G-CSF on cardiogenesis: Phospho-Histon H3 immunostaining of fetal heart sections", "set-up": "species or system mouse", "method": "G-CSF (2 ng) was directly administered into the uteri of pregnant mice at 9.0 days of pregnancy. At 13.5 days of pregnancy, fetuses were collected to prepare heart sections, which were then immunostained with Phospho-Histon H3. Phospho-Histon H3 is a dye that is specifically stained during the cell proliferation process.\nNext, the labeling index was calculated by the following equation. Labeling index=Phospho-Histon H3 positive nuclei/total nuclei×100(%)"}, "[6]": {"system": "fetal myocardial proliferation", "assay": "In vivo effect of G-CSF on cardiogenesis: BrdU immunostaining of fetal heart sections", "set-up": "species or system mouse", "method": "(§4) At 9.0 days of pregnancy, mice were laparotomized and G-CSF (100 ng/kg) or PBS (phosphate-buffered physiological saline; serving as a control) was directly administered into their uteri. At 9.5 days of pregnancy, the mice were then administered with BrdU (bromodeoxyuridine) by the intraperitoneal route. BrdU is incorporated during DNA synthesis and allows proliferation assessment by immunostaining. At 12.5 days of pregnancy, fetuses were collected to prepare heart sections, which were then analyzed in the same manner as shown for immunostaining in Example 1(2).\nMoreover, for quantification of the myocardial proliferation-promoting effect, the BrdU labeling index was calculated by the following equation. It should be noted that wild-type mice were used in this test, which were administered with BrdU at 10.5 days of pregnancy and analyzed at 12.5 days of pregnancy. BrdU labeling index=BrdU positive nuclei/total nuclei×100(%)"}, "fetal hearts": {"system": "fetal hearts", "assay": "Hematoxylin-eosin staining of fetal heart sections after G-CSF administration", "type": "in vivo, mouse", "conditions": "G-CSF 100 ng/kg into uteri at 9.0 days of pregnancy; fetal hearts at 12.5 days", "method": "as §4"}, "ES cells": {"system": "ES cells", "assay": "Induction test of cardiomyocyte differentiation: autonomously beating EBs / total EBs", "type": "cell-based, mouse", "method": "as §1\nNamely, on gelatin-coated dishes, ES cells were maintained in an undifferentiated state in the presence of LIF, and suspension culture was started at day 0 in the absence of LIF to initiate differentiation of the ES cells, whereby EBs which had differentiated into cardiomyocytes were obtained at day 9. At days 5, 6, 7 and 8, G-CSF (2.5 ng/ml) was added and studied for its effect on EB formation. This effect was calculated by dividing the number of autonomously beating EBs by the total number of EBs.\nBased on the above results, the optimum concentration of G-CSF was determined. The optimum concentration was studied by comparing the values calculated by dividing the number of autonomously beating EBs by the total number of EBs."}}}
{"molecule": "Noggin", "values": [{"measurement": "G-CSFR expression in EBs (immunostaining, FIG. 11)", "setting": "G-CSFR expression; Noggin(+) group vs Noggin(−) group, EBs at 6 days after EB formation", "value": "G-CSFR expression is increased"}, {"measurement": "start of G-CSFR expression in EBs (RT-PCR, FIG. 10)", "setting": "G-CSFR expression; Noggin(+) group, 0.15 μg/ml Noggin for 3 days", "value": 5, "unit": "days after EB formation"}]}
{"molecule": "COC(=O)Nc1nc2ccc(C(=O)c3cccs3)cc2[nH]1", "note": "[Nocodazole, reference compound]", "values": [{"measurement": "effect on G-CSF-increased expression of cardiomyocyte markers (RT-PCR, FIG. 19)", "setting": "cardiomyocyte markers [1]; EBs at day 6, G-CSF 7.5 ng/mL + nocodazole 0.2 μg/mL", "value": "cancelled the increased expression of the cardiomyocyte markers"}]}
{"molecule": "Nc1ncn([C@@H]2O[C@H](CO)[C@@H](O)[C@H]2O)c(=O)n1", "note": "[5-azacytidine]", "values": [{"measurement": "percentage of troponin I-positive cells (cardiomyocytes) in EBs", "setting": "human ES cells", "value": 44, "unit": "%"}]}
{"molecule": "B1", "values": [{"measurement": "expression of cardiomyocyte markers (RT-PCR, FIG. 21b)", "setting": "cardiomyocyte markers [2]", "value": "strongly enhance the expression of the cardiomyocyte markers"}]}
{"molecule": "B2", "values": [{"measurement": "effect of G-CSF addition on cardiogenesis (spontaneous beating, FIG. 21a)", "setting": "[3]", "value": "highest at 6 days after EB formation"}, {"measurement": "cell proliferation of cardiomyocytes (BrdU labeling index, FIG. 20)", "setting": "[4]", "value": "promote cell proliferation of cardiomyocytes"}, {"measurement": "fetal myocardial proliferation (Phospho-Histon H3 immunostaining, FIG. 7)", "setting": "[5]; G-CSF 2 ng into uteri at 9.0 days of pregnancy, fetuses collected at 13.5 days", "value": "enhance fetal myocardial proliferation"}, {"measurement": "Phospho-Histon H3 labeling index (FIG. 8)", "setting": "[5]; embryonic days 8.5 to 10.5", "value": "strongly enhance myocardial proliferation"}, {"measurement": "expression of cardiomyocyte markers (RT-PCR and immunostaining, FIG. 15)", "setting": "cardiomyocyte markers [1]; EBs at day 9, G-CSF-treated group", "value": "all the cardiomyocyte markers showed increased expression levels"}, {"measurement": "expression of contractile proteins, transcription factors and secretory proteins (RT-PCR, FIG. 16)", "setting": "cardiomyocyte markers [1]; G-CSF 0.25 to 25 ng/ml added to EBs at day 6, cell densities H (2×10^3 cell/ml) and L (5×10^4 cell/ml), vs control group", "value": "increased expression levels"}, {"measurement": "fetal myocardial proliferation (BrdU immunostaining, FIG. 4)", "setting": "[6]; G-CSF 100 ng/kg into uteri at 9.0 days of pregnancy, BrdU i.p. at 9.5 days, fetuses collected at 12.5 days, vs PBS", "value": "promoted fetal myocardial proliferation"}, {"measurement": "BrdU labeling index (FIG. 6)", "setting": "[6]; wild-type mice, BrdU at 10.5 days of pregnancy, analyzed at 12.5 days", "value": "enhance myocardial proliferation"}, {"measurement": "cardiac troponin I- and Nkx2.5-positive areas (immunostaining, FIG. 21c)", "setting": "cardiomyocyte markers [2]; CMES-derived EBs, G-CSF-treated vs untreated", "value": "enhanced cardiac troponin I- and Nkx2.5-positive areas"}, {"measurement": "heart section morphology (hematoxylin-eosin, FIG. 5a)", "setting": "fetal hearts", "value": "extended trabecular layer"}, {"measurement": "effect on EB formation (autonomously beating EBs / total EBs, FIG. 14)", "setting": "ES cells; G-CSF 2.5 ng/ml added at days 5, 6, 7 or 8, result for addition at day 6", "value": "greatest effect on EB formation"}, {"measurement": "optimum timing of G-CSF administration", "setting": "ES cells; G-CSF 2.5 ng/ml, days 5, 6, 7 and 8 compared", "value": 6, "unit": "days"}, {"measurement": "optimum concentration of G-CSF (autonomously beating EBs / total EBs, FIG. 17)", "setting": "ES cells; added to EBs at day 6", "value": 0.75, "unit": "ng/mL"}]}
{"molecule": "B3", "values": [{"measurement": "expression of cardiomyocyte markers (RT-PCR, FIG. 21b)", "setting": "cardiomyocyte markers [2]", "value": "strongly enhance the expression of the cardiomyocyte markers"}]}
